Reference: the supplement of paper PMC9170038

Columns and labels:
MS2 coat protein [1] = assay: apparent KD of MS2 coat protein, switch ON state; designed switch direction (-1 OFF switch, 1 ON switch): -1; higher = weaker reporter binding; conditions: FMN input: 0 or 200 uM; Eterna round: R93 (includes R88 designs)
Method in brief: (§1)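 Apparent KD stands for the median, per design, of fits to normalised cluster binding curves. The curves came from titrating on-chip-transcribed RNA switches on Illumina sequencing clusters with SNAP-549-labelled MS2 coat protein, twofold from 0.7 or 1.5 nM to 3 µM. Buffer was 100 mM Tris-HCl pH 7.5, 80 mM KCl, 4 mM MgCl2, without or with constant ligand.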

MS2 coat protein [2] = assay: apparent KD of MS2 coat protein, switch OFF state (with FMN for OFF switches, without FMN for ON switches); designed switch direction (-1 OFF switch, 1 ON switch): -1; higher = weaker reporter binding; conditions: FMN input: 0 or 200 uM; Eterna round: R93 (includes R88 designs)
Method in brief: as §1

Sequence | apparent KD of MS2 coat protein (MS2 coat protein [1]) [nM] | apparent KD of MS2 coat protein (MS2 coat protein [2]) [nM]
AAGCUGCUAGGAUAUACAGCAGGGAUUCGAAAACCCACGAAACAUGAGGAUCACCCAUGUAGAAGGAGUAGGGA [Attixe] | 22.9 | 15.2
AAAAAGUCAGGAUAUGCAGAAAAAAAAACGAAAAAAAAACUGCAGAAGGGACAUGAGGAUCACCCAUGUUAAAA [Ex 4 May 14] | 30.8 | 29.8
AAGAAGAGAGGAUAUACAUGAGGAUCACCCAUGUAAAAGAAAGAAAAGGGAAAGAAAAGUAGAAGGCUCAAGAA [Aakheperrure Amenhotep II] | 26.4 | 38.3
AAAAAGUGAGGAUAUUCGGAUAGGAAAACGAAAACCUAUCCGAAGAAGGCACAUGAGGAUCACCCAUGUAAAAA [67% Ecls-II - Early G segment 1] | 37 | 37.6
AGUUGGCGAGGAUAUACAUGAGGAUCACCCAUGUAAAAUAAAUAAAAAAAGGGAGAAAGUAGAAGGCGCUGACA [73%, Moding Norbert Elias, 12] | 56.2 | 193
AACUGCGCAGGAUAUACAUGAGGAUCACCCAUGUAAAGAAAAGAAAGAUCCGAAGAAAGUAGAAGGGCGUGGAA [Variant 2 of Mod 1 of Ex3 sub 3, by Tesla's Dusciple Round 1] | 43.2 | 56.3
AGCUAGUGAGGAUAUACGAACAUGUCAACGGACUGUAAGGGACAUGAGGAUCACCCAUGUAGAAGGCACUAGCA [Diamond 57] | 67.2 | 165
AGUAUGCGAGGAUAUACAUGAGGAUCACCCAUGUGAGAGAUAAGUGUGAGAAAGACAUGUAGAAGGCGCGUACA [JL Lego Mod 28] | 146 | 35.1
AGCUAGUCAGGAUAUACGAACAUGUCAGAAGACGUGAAGGGACAUGAGGAUCACCCAUGUAGAAGGGACUAGCG [74%, Web mod - With 2 more G's] | 34.9 | 117
CUCUUGUAAGGAUAUAAAUGAAAAGAAGUGAAAGAAAAGAAUUAGAAGGUACAUGAGGAUCACCCAUGUUAGAA [EteRNA is fun!] | 22.1 | 18.5
AAAAAACAUGAGGAUCACCCAUGUGAGGAUAUGAUGCGAAUAAAGAAAGAAGAAAGCAUCAGAAGGCACACCAA [58%, Disencluded 3, 1] | 29.4 | 52
AAGAAGUCAGGAUAUGCGAAUCGAUAAGAACGUCAAAGAAAGCAGAAGGGACAUGAGGAUCACCCAUGUAAAGA [Opal 39] | 30.7 | 27.6
CUCAAGUGAGGAUAUUCAAGAAAAGAAAAGAAAGAAAAGAAGAAGAAGGCACAUGAGGAUCACCCAUGUAAGAA [EteRNA is fun!] | 34.9 | 57.5
AAGAAGUCAGGAUAUCGAAGACAGACGAAAAGUCUGUCAAACGAGAAGGGACAUGAGGAUCACCCAUGUAAAGA [Mat - Exaclusion 4 - Eli mod - D73] | 63.1 | 61
GGCUAGUCAGGAUAUACGAACAUGUCAAAAGACGUGAAGGGACAUGAGGAUCACCCAUGUAGAAGGGACUAGCG [salish99-ex2-13] | 32.8 | 132
AGCUAGCAAGGAUAUACGAACAUGUCAAAAGACGUGAAGGGACAUGAGGAUCACCCAUGUAGAAGGUGCUAGCA [JL 74% mod 8] | 36.6 | 127
AAGAGUAGAGGAUAUACGGGAAAAGAGUCGAAAGACUCAAAACAUGAGGAUCACCCAUGUAGAAGGCUACUCAA [Hyphema Seclusion Mod 62% 6] | 87.7 | 102
AAAAGGUCAGGAUAUGCCCACCAGGAAAAAAAACCAGGUGGGCAGAAGGGACAUGAGGAUCACCCAUGUAAAAA [Excls4-I] | 59.6 | 107
AAGAACUCAGGAUAUGCUAAAGAAAUAAAAAUAAAUAAAGAACAUGAGGAUCACCCAUGUAGAAGGGAGAAGAA [Merkawre Sobekhotep VII] | 76.4 | 46.2
AAAAAACAUGAGGAUCACCCAUGUGAGGAUAUCGGAAAAGGAAAAAAAAAAAAGAAGACGAGAAGGCACAAAGA | 26.6 | 28.6
GGUUGGCGAGGAUAUACAUGAGGAUCACCCAUGUGAGAGAAAAAAGUGAGGAGGAGGAGUAGAAGGCGCUGACG [salish99-ex3-18] | 28.4 | 97
AAGUUAUUAGGAUAUACUUGUGCGAUUAAUACGUUGAUAUUACAUGAGGAUCACCCAUGUAGAAGGAAUAAAAA [JR_Exc002_Sub412] | 24.4 | 19.4
